The values below come from PMC9388682, “Structural basis for cannabinoid-induced potentiation of alpha1-glycine receptors in lipid nanodiscs” (Nature Communications, 2022).

This data set concerns the molecule itself. Put plainly: cryo-EM structure; purified GlyR in asolectin nanodiscs (MSP1E3D1), buffer A (200 mM NaCl, 20 mM HEPES pH 8.0); with or without 32 μM THC and 0, 0.1 or 1 mM glycine; Titan Krios 300 keV, RELION; homopentamer.

B1: zebrafish glycine receptor alpha1 (GlyRα1), full-length, homopentamer in asolectin nanodiscs (receptor, UniProt O93430 25-444, looked up)
chain: ARKAASPMPPSEFLDKLMGKVSGYDARIRPNFKGPPVNVTCNIFINSFGSIAETTMDYRVNIFLRQQWNDPRLAYSEYPDDSLDLDPSMLDSIWKPDLFFANEKGANFHEVTTDNKLLRISKNGNVLYSIRITLVLACPMDLKNFPMDVQTCIMQLESFGYTMNDLIFEWDEKGAVQVADGLTLPQFILKEEKDLRYCTKHYNTGKFTCIEARFHLERQMGYYLIQMYIPSLLIVILSWVSFWINMDAAPARVGLGITTVLTMTTQSSGSRASLPKVSYVKAIDIWMAVCLLFVFSALLEYAAVNFIARQHKELLRFQRRRRHLKEDEAGDGRFSFAAYGMGPACLQAKDGMAIKGNNNNAPTSTNPPEKTVEEMRKLFISRAKRIDTVSRVAFPLVFLIFNIFYWITYKIIRSEDIHKQ
modifications: N-glycans at Asn62
notes: glycine receptor subunit alpha-1, zebrafish, codon-optimized full-length gene (NCBI NP_571477); residues of the models numbered as in UniProt O93430; Phe341-Lys394 (M3-M4 loop, ICD) not modelled in the structures; also called zebrafish homomeric GlyRα1; glycine α1 receptor
By stoichiometry N is commonly meant a count of units in the complex or per binding partner. Take B1: the “stoichiometry N” value was found to be 5.
